Molecular target: the molecule itself
Assay: SEC-MALS; Superose 6 10/300 Increase column, buffer C (20 mM Tris–HCl, 150 mM sodium chloride, pH 7.4), 25 °C; native and MA-treated hα2M from FR and NF plasma

B1: native human α2-macroglobulin (natural protein, UniProt P01023 24-1474, looked up)
chain: SVSGKPQYMVLVPSLLHTETTEKGCVLLSYLNETVTVSASLESVRGNRSLFTDLEAENDVLHCVAFAVPKSSSNEEVMFLTVQVKGPTQEFKKRTTVMVKNEDSLVFVQTDKSIYKPGQTVKFRVVSMDENFHPLNELIPLVYIQDPKGNRIAQWQSFQLEGGLKQFSFPLSSEPFQGSYKVVVQKKSGGRTEHPFTVEEFVLPKFEVQVTVPKIITILEEEMNVSVCGLYTYGKPVPGHVTVSICRKYSDASDCHGEDSQAFCEKFSGQLNSHGCFYQQVKTKVFQLKRKEYEMKLHTEAQIQEEGTVVELTGRQSSEITRTITKLSFVKVDSHFRQGIPFFGQVRLVDGKGVPIPNKVIFIRGNEANYYSNATTDEHGLVQFSINTTNVMGTSLTVRVNYKDRSPCYGYQWVSEEHEEAHHTAYLVFSPSKSFVHLEPMSHELPCGHTQTVQAHYILNGGTLLGLKKLSFYYLIMAKGGIVRTGTHGLLVKQEDMKGHFSISIPVKSDIAPVARLLIYAVLPTGDVIGDSAKYDVENCLANKVDLSFSPSQSLPASHAHLRVTAAPQSVCALRAVDQSVLLMKPDAELSASSVYNLLPEKDLTGFPGPLNDQDNEDCINRHNVYINGITYTPVSSTNEKDMYSFLEDMGLKAFTNSKIRKPKMCPQLQQYEMHGPEGLRVGFYESDVMGRGHARLVHVEEPHTETVRKYFPETWIWDLVVVNSAGVAEVGVTVPDTITEWKAGAFCLSEDAGLGISSTASLRAFQPFFVELTMPYSVIRGEAFTLKATVLNYLPKCIRVSVQLEASPAFLAVPVEKEQAPHCICANGRQTVSWAVTPKSLGNVNFTVSAEALESQELCGTEVPSVPEHGRKDTVIKPLLVEPEGLEKETTFNSLLCPSGGEVSEELSLKLPPNVVEESARASVSVLGDILGSAMQNTQNLLQMPYGCGEQNMVLFAPNIYVLDYLNETQQLTPEIKSKAIGYLNTGYQRQLNYKHYDGSYSTFGERYGRNQGNTWLTAFVLKTFAQARAYIFIDEAHITQALIWLSQRQKDNGCFRSSGSLLNNAIKGGVEDEVTLSAYITIALLEIPLTVTHPVVRNALFCLESAWKTAQEGDHGSHVYTKALLAYAFALAGNQDKRKEVLKSLNEEAVKKDNSVHWERPQKPKAPVGHFYEPQAPSAEVEMTSYVLLAYLTAQPAPTSEDLTSATNIVKWITKQQNAQGGFSSTQDTVVALHALSKYGAATFTRTGKAAQVTIQSSGTFSSKFQVDNNNRLLLQQVSLPELPGEYSMKVTGEGCVYLQTSLKYNILPEKEEFPFALGVQTLPQTCDEPKAHTSFQISLSVSYTGSRSASNMAIVDVKMVSGFIPLKPTVKMLERSNHVSRTEVSSNHVLIYLDKVSNQTLSLFFTVLQDVPVRDLKPAIVKVYDYYETDEFAIAEYNAPCSKDLGNA
modifications: β-cysteinyl-γ-glutamyl thioester bond C972–Q975; glycosylated
notes: human α2-macroglobulin, secreted glycosylated 1451-residue protein; homotetramer, a dimer of disulfide-linked dimers; Authentic protein from the plasma of anonymous healthy donors; also called hα2M; native hα2M
stoichiometry N: 4

Source: publication PMC10027685, “Frozen fresh blood plasma preserves the functionality of native human α2-macroglobulin” (Scientific Reports, 2023)
